In the NTF2 design screens of Basanta et al. (2020):

Test: protease stability score; higher = more stable; yeast display proteolysis, trypsin and chymotrypsin;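 note: log10 excess protease needed over predicted unfolded state with 0 meaning unfolded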

Sequence | protease stability score
DEDQELRSLAEDAVRAMQSNNPDDFVNLFPENARINIGDKNIHGREEIKKHAQEVNTKVDRFSVTIEHIHVHNGKAEFTVDFVMNINGRTERRRASFRIDRIGDKVRIHSADVK | 0.571
DEEDQKVFERILEIFKTGDEEEAQKNMDKDVRVQYGDKQLHGRENIARELQTKMNELRYKFSIESVENHNGQVRVNFQFVENHNGRPSRKKAKLVVHFRNGKLRNFEQQDVS | 0.534
EEELADLLRRFLENVKDNDENQLKRNLDPNVRVLVGDKTLHGREDVARWLTKHQREQRVEYRIKEYEIHGNHFNATMQAQNTNNGKPRTFEAVIRVQFRNGRFQVIQIEDKQ | 1.39
DREDTAREAAHEAIKIWKTGDPEKLKELFDPNVKVKIGDRTVHGREELVRQIRHEREQVDHLSFDLEDYKMDGDQMHVVVRFTANRNGRRTEDKQVYNASFHNGQFRIHEMNKK | -0.356
DEEIVELIKKVLEAIEEGDETRLKKLFDPNAEFEIGDKKLHGMENAAKEWRKQRQQMEIRIKSVHFEVRGERVIVKFKVEYDHNGRPSTMTVHIVALAHNGKMTYFSQKVTQ | 0.826
DEDKLTRVEDFLRLQEQNNEDELLKQMDPNATQRYGNKHVHGSSEVKRFLHRLHREMRIRVEMKSVEVHGDEVVMKADFSKTFNGRPETLTATVVFKVHNGRIQKIIFEERK | 1.41
EEEDTKLMKQYADAVNNNNPDELRRQADENVRFEVGDNVFHGRKEYIKDVERKLRNIRITMNVKSLTVEGDKVNVTFEERHNKNGKPETFTAKARAHFHNGRIHSIRYEKDG | 0.049
DERLLHEFQKNVENNNWDKLSELVDEDAKIKYGDKTITGRESLDRMFTQLKRQVDHVDIESVHIDGDKVHVDLRIRVNGHSVRFIMTAEFSNGRIKSMKIEVTSEEQQDHLNEQLS | 1.19
DEEDLKTMFDVMETGDPNQIADQFDKDARVVVGNRRVRGKEHIHTWAHEWRKNVDHQQVDSYEIKGDNARVDMQATINGTRFVFEIIIQVHNGKAKEMELRVRDEEEKKELDEVLE | -0.026
DEERKEQLLEIYKAIDTGNPEKVKELADPNAHVQYGDKSVHGMDDAVRQLEKRRKEIRIHWDVKSVHVEGNKVDVVAENEEEHNGHPRSHTVRVNAEFQGDKMKNAHYQSDK | -0.202
DEDKRARKFADTMRKVLEKGNEEEFRDMMDKDVSFKYGDKEVRGREEAAKRLKDTVKRVDRVEVNIKSIHVQGDKVSIDMLIVNDHNGKHHHRRLVFYAKDDNGKLVVVKVTER | 1.86
DEDVVDEFRRAIESNDFDRLVELADENAKADIGNKTVRGRDEMKDLMTSQKRRVDHLQVTSFSIDGDKLTVRYIANIDGHKIDNVVRFVAHNGKLKHMEVRARSEEQQKTLEKLIG | 0.059
DEKNLNQLKDLIKTNDEERIHELMDPNVRLVIGDQEVQGRENVFKVLKRWRERADHVRYNDLKLHDGRAFADVEINVNGENIRVHYVYVAHNGRIKEIKVTATDEDEQRKVEDNYK | 1.37
DEDDNRKMHKLMETGDFEKIAHHADPNAHAKYGDKTVTGKEELKSVFTKFNRAVDHVQVQDVRIRGDKVTLDAEVNVNGQTVQVTVSARAHNGQIKHFKIQARDEQIQRDIKDALE | 0.845
DEDLERKAKKYIDALDTGDPDEVSKLVDPNVKFMYGDKTFHGRDQLRRIIQRISDQQRVHVDIKTFSAKGDKVEIKARIEVETDGRPRQFHAIYRMRVHNGKITHISVEMRQ | 1.23
EKEVMDTLVKIVNEGNFEDLAKMADKDVQVRIGNKNLHGKEQLQKFMERFTRQADHIRVHRYQFSNGRFQFDFVIVVNGKRFRVTMHVEVSNGRIKKLVINVTDEDAEKVLREAYG | 1.38
DEEDAQTLQRVLNHGDPDEWVRLADENVHARVGDKTYSGREHLKTFWHKLREQVDEIEVKSVDISGDRVQADIIYVVNGKRIRVTMVAHVNNGRIKEYKIHYRNEEVRDQLREAQS | 0.793
DEDREKRFAKHVADVLRTGDSDRLQELADENVRMRIGDKTYKGRENFTKALEELRNRVDHIDIKSVKVHNGRISIDFVMRHNGREQTAVLIMHIHNGRIESQEVHSK | 0.618
DEKKVKKVADKVMRVAANGDNETARKLGKPDVTFEAGSNKMRGVEQVDKYYEKVKRQGNELHIKEVKVEGDRAKVKYDIKIGGTEMTVTAEVYIENDKVEKARIEMDEDYEKKVTKG | -0.338
DEQKQAHDLLRQLDEAMRENDPDTMRDLFDKDAHVKVGDKEFRGTQKVREFNEELKRQADHFSVDVKRMETRPGHFNVQLVLHMETNGRTDHLKFRVRMRVVNGRAVVVTLHQG | 0.692
DEEDEREVAKQAVDDLVKGNPDRASELADPNVHVEIGDKTYRGQTQMASALKDFRKNVDSVQIDDLKLHGNKADVDMRVDHNGQQQKYHVIVIVHNGRVSELKIKEK | 1.48
DPKKDLKVAEEVLKAMYSGDDEKAQKLVDPSVKAQTGDQKYHGTDDIKKMVKTFKDYGVEHEEKETKVDGGYAEVVIQAKIGNDEVEAKWRVYAKDGRVDYVQADITEKLTKLMQHG | -0.445
DERAAQTAVDLMKTNNERDRVKMADENVRYNVGDKTVHGREEWKKFAEQQRTSIDHMKIDDVKHHNGRIQVDMVVVVNGKKFRFVLQATVHNGKFKYFQRKVRDDEIRKILRRINK | 0.235
DEEKQSTRALQMLHNIATGNEREAQKLMDEDVKLQVGDKHLHGKEQVRHRIHELLRTVDHMDVKDMHYSGDHVSVTAIARVNGQNQHVELSAHVSNGTIKDIRVRYS | 1.25
DEENKKRFDKFQEVQKQGDPKQLQSLMDPNVEWRVGDKNYHGRQEIAKDRIRVQREIRIEFNITHYENHNGRVKIHAEAKAKVNGRPQTYDYSFEVVVHNGKIKELNWRVDPEEVDRIES | 0.67

Sequence | protease stability score
DTRKVQEMAKQFVQAMKDNDRTTLEKLADEDARIRVGEKELHGRDQVATMVAHMAKNIDHIRVKKLSVDENHVNLVFEVEHNGRRVRIILRITARNGRIKHIQVDPDRVRELEG | 1.01
DDDAVRQAQENLKAIEDGDEDKVRNLMDPNAQVNIGDKTIHGMEEFMRQMKRKLDEIRVDYEDIKIDKQGDKARLDATWRQDDNGEPHSMKVDVDVKFRNGKIVDWQQQYDG | -0.149
DEEVVHDLENQFRKNNWEEFARQADENAKVNIGEFEISGRSQIEEWAHRVKKQVDHIDVKHVSYDEDHLRMRVVVVVNGRKFDFEVIINVSNGEVKHMEVRFRDPSQETEWLNQIN | 1.61
DEEHNERVAEEINRIMRDGDEERFEEMVDEDVKLQVGDKTWSGREEARKWQHEMWNSVDHVHIQDFEVSGDEIVIHFQLEHNGRREQAVVIVRFSNGRIKMMTIETQ | 1.41
DEEKVKLASEIWKAFDRNNPDRVEELIDPNARFQYGDKKYHGMEQAKNHIKKILDDANIHIKSISMTDHNGKVRAEVEFVRNHNGKPQTDRVEMSAEFTNGRVTHFEVTEVP | 0.871
DHQESAHRLHNTLKTIWSENDPDKYSELIDENVHVDVGDKKFRGRDEAKKLAEHIMRRADHIEIRLTSIDVHGNTIRIVVELNFNHDGTSSSVTVVVVLENHNGNFRVKKIRES | 0.017
DQRDLEHVNHVLQTGDPDQFRDLVDPNARIRVGDKTIHGRENVLTKYRRLMEQADHLQIDSIRNHGEFVVFDFRMTVNGRQVDAEVNIHVKDGQIKEIEIRFRSEEQEDRWRKQAD | 1.42
DEELKKWFHHWVRAMERGDEQELRNQADPNAKFKIGDKTYHGMDEFARQVVQELRHLRVHIRFKRVRNEPGRLSVDATVVREHNGKPDSYRQKASATYHNGKLTNMTINKDK | 0.735
DDKEKAEKFLTKWVEAIKTGNEEQLNELADPNVRFKYGDRVIHGREQQAKHNKELRERADRMEFRVDDVDIRPGKVVVHARYTVNINGKEETHQYTATADVKNGRLQITEQQNS | -0.092
DEEEEHKFEDQVRTNDPDKQRKQLDKDVHVEYGDRTYHGRDAVDKWYKKMKKQVDHVHYHDIRIRNGHATLQNEANVNGRNVRMHVDIEVHNGRLKRMTINFRDEEDTKLFDRLVR | 0.048
DSDKLRKSAKKFLDLQRTGNEDELKKMIDPNAKAVVGDKEYHGSTEIAHALARMRREVDHITLDRFQFKGNRLKANMTYQHNGRRDRFVVTVTMHNGRVSHITFKST | 0.38
DEKLIKLLKSLLKIQESGDPDKLRTMADPNVRFNIGDKVFHGMEEYATHVVELRKQAHIRIERLSNSDSNGVVNADFTRVNNHNGKPDSRRQEVTYVAHGDRIKEVNNQDHQ | -0.503
DTEDLNRLANTMASAIHHNDPDKIVKMFDPNARARVGDKSYHGREDLRKMVNEWHRQADDIHIQQVQVHNGRAYINFVRNVNGVHADLTAIITIENGRAEKMTLTYRNPDDEKKVQG | 0.279
DEELVKRAEDMIKAIQRGDEDRINQMVDPNADVRVGDQRYDGMHEYVTRLKSRQKRMRRSVSVESVTAKNGQVRIDAKMTRNDNGRPERFKHIIIIKAENGEIQVIHVHKSQ | -0.078
DTRAREVLEKFLKALNKGDPDKMKRQADPNAKFHIGDKQVHGMDQMKEQIRTNQRHMKIDVQVQEVQVRNGRVVARMEVRQTHNGQPTSDILVVEAEVKNGRIKSAHWEKSS | -0.414
DQQKEAEKFARDMRRALDTGDERDVANLFPPDAKLRYGDKSFHGMDDIFKWVVTVLRQADHIHFQVRSVRDQGDKADIEFELRYDVNGQDRSRIFHAEVRHNGDNVQVEMNVEK | 0.326
DDEQDRDFVQTMREAIDRGDFKKIARMADKDVKVVIGDKNVTGRETLTHLLKDFVDKFDHIRVRHIDAHNGSVDIDMTADHNGDKRQYRIRVNVSNGQVKEFQLKQT | 0.453
DEEEEKQLEDIWKENDWQKWANDADPNVRVNIGDETLHGREDLQRWAQLVRKRYDHVKIESVRFHNGRADVEVNVVVDGEQFRYKLTIQLHNGRVKHMKIQATDEQVKTLLDQMRS | 1.59
DEEDQKNFAEQANRALHHGDPRQMATLADKDAEVTVGDREYKGRRDINEAMKDWSDQVDSIEVKSVTVQGNNIVVHFVFVHNGHEHKVVMRITMEGDKATSIHLDEK | 0.336
DEDAVRKAKQWVKALRDGDEDELREQVDPNARINVGDKTFHGMDEFVKDVLKTHSEQRVNFDIKSVNASNGRVDMKMDATFDINGEPKTFSLVLTVDFHNGRAKQLEVKFDPKVKEDLTK | 0.769
DEEELQRWAERIVEAFTHGDPQRLSKNVDKNVKVTVGEHEYHGKEELNKILEEIRRQADRIHYKSVDVQGDRANFDMVMNVNGKNVKFTLIVRFENGHAKHLEFDPRMWRVVQR | 1.53
DEELHEWVKEYLKALQHNDPNQFKRLADPNVRYHVGDKEVHGREEWAKLVEKRRDSMRLEMKSVSIDAQGNKARVRLRFVEEHDGRPKEFEADFDFHVSNGKLVTVKVDEDQ | 0.123
DEEKNETAKQLQRIEETGNKDEVQEMLDKDADIHIGDKVVHGREEYARQVHRRRDEINVQIDEVHYKDEEGSVVVRYTAMQEVNGRPIKNSFQRVQHIDNGRVKHMHFKFSEEQERQMRG | -0.055
DEKRQAKEYVKHFDEVIETNDPDQLNELMDKDVRLDIGETKVSGRDDAKKWAKELVDQIDHVRVNVRKVDVQGDTIKVEVDIQIQYNGRHEQRVLHFTAVLSNGRAKIKRFTVE | 0.559
DEDKEAEKLVKEMQENQRQGDEEKWANLFDEDAHFRIGDKHLHGRQDLQDNVRKWRHNYDHLSVRMKDLKHDGDKARLHVVITQRHNGKNDSMTVDIVIVKQNGRVRIKNFQAP | 0.513
